B1: NaKΔ18 (domain or fragment, B. cereus)
chain: WKDKEFQVLFVLTILTLISGTIFYSTVEGLRPIDALYFSVVTLTTVGDGNFSPQTDFGKIFTILYIFIGIGLVFGFIHKLAVNVQLPSILSNRKKE
B2: NaKΔ18 L61A (domain or fragment, B. cereus, UniProt Q81HW2 19-114, looked up)
chain: WKDKEFQVLFVLTILTLISGTIFYSTVEGLRPIDALYFSVVTATTVGDGNFSPQTDFGKIFTILYIFIGIGLVFGFIHKLAVNVQLPSILSNRKKE
B3: NaKΔ18 L35A (domain or fragment, B. cereus, UniProt Q81HW2 19-114, looked up)
chain: WKDKEFQVLFVLTILTAISGTIFYSTVEGLRPIDALYFSVVTLTTVGDGNFSPQTDFGKIFTILYIFIGIGLVFGFIHKLAVNVQLPSILSNRKKE
B4: NaKΔ18 L61T (domain or fragment, B. cereus, UniProt Q81HW2 19-114, looked up)
chain: WKDKEFQVLFVLTILTLISGTIFYSTVEGLRPIDALYFSVVTTTTVGDGNFSPQTDFGKIFTILYIFIGIGLVFGFIHKLAVNVQLPSILSNRKKE
B5: NaKΔ18 L35A+L61A (domain or fragment, B. cereus, UniProt Q81HW2 19-114, looked up)
chain: WKDKEFQVLFVLTILTAISGTIFYSTVEGLRPIDALYFSVVTATTVGDGNFSPQTDFGKIFTILYIFIGIGLVFGFIHKLAVNVQLPSILSNRKKE

Target: the molecule itself
Assay: SEC
In the case of B1, the “stoichiometry N” value is reported as 4.
In the case of B2, the “stoichiometry N” value is reported as 4.
For B3, the “stoichiometry N” value was 4.
B4 was tested, and the “stoichiometry N” value was 4.
For B5, the “stoichiometry N” value was 4.

Source: publication doi:10.1101/2022.04.18.488652 (bioRxiv, 2022)
